# Article PMC8766471, “Mutations affecting the N-terminal domains of SHANK3 point to different pathomechanisms in neurodevelopmental disorders” (Scientific Reports, 2022)
# B1: Shank3 N-terminus (SPN + Ank domains, residues 1-339), WT, mRFP-tagged [rat] / δ-catenin, GFP-tagged [mouse] (parent complex)
# chain 1: MDGPGASAVVVRVGIPDLQQTKCLRLDPTAPVWAAKQRVLCALNHSLQDALNYGLFQPPSRGRAGKFLDEERLLQDYPPNLDTPLPYLEFRYKRRVYAQNLIDDKQFAKLHTKANLKKFMDYVQLHSTDKVARLLDKGLDPNFHDPDSGECPLSLAAQLDNATDLLKVLRNGGAHLDFRTRDGLTAVHCATRQRNAGALTTLLDLGASPDYKDSRGLTPLYHSALGGGDALCCELLLHDHAQLGTTDENGWQEIHQACRFGHVQHLEHLLFYGANMGAQNASGNTALHICALYNQESCARVLLFRGANKDVRNYNSQTAFQVAIIAGNFELAEVIKTHK
# chain 2: MFARKQSGAAPFGAMPVPDQPPSASEKNSSLSPGLNTSNGDGSETETTSAILASVKEQELQFERLTRELEAERQIVASQLERCKLGSETGSMSSISSAGEQFHWQTQDGQKDIEDELTTGLELVDSCIRSLQESGILDPQDYSTSERPSLLSQSALQLNSKPEGSFQYPASYHSNQTLALGDTAPSQLPARSTQARAAGQSFSQGTTGRAGHLAGSEPAPPPPPPREPFAPSLGSAFHLPDAPPAAAALYYSSSTLPAPPRGGSPLTTTQGGSPTKLQRGGSAPEGAAYAAPRGSSPKQSPSRLAKSYSTSSPINIVVSSAGLSPIRVTSPPTVQSTISSSPIHQLSSTIGTYATLSPTKRLVHASEQYSKHSQELYATATLQRPGSLAAGSRASYSSQHGHLAPELRALQSPEHHIDPIYEDRVYQKPPMRSLSQSQGDPLPPAHTGTFRTSTAPSSPGVDSVPLQRTGSQHGPQNAAAATFQRASYAAGPASNYADPYRQLQYCASVDSPYSKSGPALPPEGTLARSPSIDSIQKDPREFGWRDPELPEVIQMLQHQFPSVQSNAAAYLQHLCFGDNKIKAEIRRQGGIQLLVDLLDHRMTEVHRSACGALRNLVYGKANDDNKIALKNCGGIPALVRLLRKTTDLEIRELVTGVLWNLSSCDALKMPIIQDALAVLTNAVIIPHSGWENSPLQDDRKIQLHSSQVLRNATGCLRNVSSAGEEARRRMRECDGLTDALLYVIQSALGSSEIDSKTVENCVCILRNLSYRLAAETSQGQHMGTDELDGLLCGETNGKDTESSGCWGKKKKKKKSQDQWDGVGPLPDCAEPPKGIQMLWHPSIVKPYLTLLSECSNPDTLEGAAGALQNLAAGSWKGWAEDVAGMAYALRSLPEGAPCLPQWSVYIRAAVRKEKGLPILVELLRIDNDRVVCAVATALRNMALDVRNKELIGKYAMRDLVHRLPGGNNSNNSGSKAMSDDTVTAVCCTLHEVITKNMENAKALRDAGGIEKLVGISKSKGDKHSPKVVKAASQVLNSMWQYRDLRSLYKKDGWSQYHFVASSSTIERDRQRPYSSSRTPSISPVRVSPNNRSASAPASPREMISLKERKTDYESAGNNATYHGTKGEHTSRKDTMTAQNTGVSTLYRNSYGAPAEDIKQNQVSTQPVPQEPSRKDYETYQPFPNSTRNYDESFFEDQVHHRPPASEYTMHLGLKSTGNYVDFYSAARPYSELNYETSHYPASPDSWV
# Variants of: B1
# Assay: co-immunoprecipitation (mRFP-trap) with Western blot quantification; coexpressed in 293 T cells; three independent experiments; read off a plot
row,Variant,response
1,chain 1 MDGPGASAVVVRVGIPDLQQTKCLRLDPTAPVWAAKQRVLCALNHSLQDALNYGLFQPPSRGRAGKFLDEERLLQDYPPNLDTPLPYLEFRYKRRVYAQNLIDDKQFAKLHTKANLKKFMDYVQLHSTDKVARLLDKGLDPNFHDPDSGECPLSLAAQLDNATDLLKVLRNGGAHLDFRTRDGLTAVHCATRQRNAGALTTLLDLGASPDYKDSRGLTPLYHSALGGGDALCCELLLHDHAQLGTTDENGWQEIHQACRFGHVQHLEHLLFCGANMGAQNASGNTALHICALYNQESCARVLLFRGANKDVRNYNSQTAFQVAIIAGNFELAEVIKTHK [chain 1 Y272C],~0.068
2,chain 1 MDGPGASAVVVRVGIPDLQQTKCLRLDPTAPVWAAKQRVLCALNHSLQDALNYGLFQPPSRGRAGKFLDEERLLQDYPPNLDTPLPYLEFRYKRRVYAQNLIDDKQFAKLHTKANLKKFMDYVQLHSTDKVARLLDKGLDPNFHDPDSGECPLSLAAQLDNATDLLKVLRNGGAHLDFRTRDGLTAVHCATRQRNAGALTTLLDLGASPDYKDSRGLTPLYHSALGGGDALCCELLLHDHAQLGTTDENGWQEIHQACRFGHVQHLEHLLFYGANMGAQNASGNTALHICALYNQESCARVLLFRGANKDVRNYNSQTAFQVAIIAGNFELAEVIKSHK [chain 1 T337S],~0.092
3,chain 1 MDGPGASAVVVRVGIPDLQQTKCLRLDPTAPVWAAKQRVLCALNHSLQDALNYGLFQPPSRGRAGKFLGEERLLQDYPPNLDTPLPYLEFRYKRRVYAQNLIDDKQFAKLHTKANLKKFMDYVQLHSTDKVARLLDKGLDPNFHDPDSGECPLSLAAQLDNATDLLKVLRNGGAHLDFRTRDGLTAVHCATRQRNAGALTTLLDLGASPDYKDSRGLTPLYHSALGGGDALCCELLLHDHAQLGTTDENGWQEIHQACRFGHVQHLEHLLFYGANMGAQNASGNTALHICALYNQESCARVLLFRGANKDVRNYNSQTAFQVAIIAGNFELAEVIKTHK [chain 1 D69G],~0.13
4,chain 1 MDGPGASAVVVRVGIPDLQQTKCLRLDPTAPVWAAKQRVLCALNHSLQDALNYGLFQPPSRGRAGKFLDEERLLQDYPPNLDTPLPYLEFRYKRRVYAQNLIDDKQFAKLHTKANLKKFMDYVQLHSTDKVARLLDKGLDPNFHDPDSGECPLSLAAQLDNATDLLKVLRNGGAHLDFRTRDGLTAVHCATRQRNAGALTTLLDLGASPDYKDSRGLTPLYHSALGGGDALCCELLLHDHAQLGTTDENGWQEIHHACRFGHVQHLEHLLFYGANMGAQNASGNTALHICALYNQESCARVLLFRGANKDVRNYNSQTAFQVAIIAGNFELAEVIKTHK [chain 1 Q256H],~0.05
5,chain 1 MDGPGASAVVVRVGIPDLQQTKCLRLDPTAPVWAAKQRVLCALNHSLQDALNYGLFQPPSRGRAGKFLDEERLLQDYPPNLDTPLPYLEFRYKRRVYAQNLIDDKQFAKLHTKANLKKFMDYVQLHSTDKVARLLDKGLDPNFHDPDSGECPLSLAAQLDNATDLLKVLRNGGAHLDFRTRDGLTAVHCATRQRNAGALTTLLDLGASPDYKDSRGLTPLYHSALGGGDALCCELLLHDHAQLGTTDENGWQEIHQACRFGHVQHLEHLLFYGANMGAQNASGNTALHICALYNQESCARVLLFRGANKDVRNYNSRTAFQVAIIAGNFELAEVIKTHK [chain 1 Q317R],~0.14
6,chain 1 MDGPGASAVVVRVGIPDLQQTKCLRLDPTAPVWAAKQRVLCALNHSLQDALNYGLFQPPSRGRAGKFLDEERLLQDYPPNLDTPLPYLEFRYKRRVYAQNLIDDKQFAKLHTKANLKKFMDYVQLHSTDKVARLLDKGLDPNFHDPDSGECPLSLAAQLDNATDLLKVLRNGGAHLDFRTRDGLTAVHCATRQRNAGALTTLLDLGASPDYKDSRGLTPLYHSALGGGDALCCELLLHDHAQLGTTDENGWQEIHQACRFGHVQHLEHLMFYGANMGAQNASGNTALHICALYNQESCARVLLFRGANKDVRNYNSQTAFQVAIIAGNFELAEVIKTHK [chain 1 L270M],~0.066

# Next, values leading:
row,response,Variant
1,~0.022,chain 1 MDGPGASAVVVRVGIPDLQQTKCLRLDPTAPVWAAKQRVLCALNHSLQDALNYGLFQPPSRGRAGKFLDEERLLQDYPPNLDTPLPYLEFRYKRRVYAQNLIDDKQFAKLHTKANLKKFMDYVQLHSTDKVARLLDKGLDANFHDPDSGECPLSLAAQLDNATDLLKVLRNGGAHLDFRTRDGLTAVHCATRQRNAGALTTLLDLGASPDYKDSRGLTPLYHSALGGGDALCCELLLHDHAQLGTTDENGWQEIHQACRFGHVQHLEHLLFYGANMGAQNASGNTALHICALYNQESCARVLLFRGANKDVRNYNSQTAFQVAIIAGNFELAEVIKTHK [chain 1 P141A]
2,~0.05,chain 1 MDGPGASAVVVRVGIPDLQQTKCLRLDPTAPVWAAKQRVLCALNHSLQDALNYGLFQPPSRGRAGKFLDEERLLQDYPPNLDTPLPYLEFRYKRRVYAQNLIDDKQFAKLHTKANLKKFMDYVQLHSTDKVARLLDKGLDPNFHDPDSGECPLSLAAQLDNATDLLKVLRNGGAHLDFRTRDGLTAVHCATRQRNAGALTTLLDLGASPDYKDSRGLTPLYHSALGGGDALCCELLLHDHAQLGTTDENCWQEIHQACRFGHVQHLEHLLFYGANMGAQNASGNTALHICALYNQESCARVLLFRGANKDVRNYNSQTAFQVAIIAGNFELAEVIKTHK [chain 1 G250C]
3,~0.07,chain 1 MDGPGASAVVVRVGIPDLQQTKCLRLDPTAPVWAAKQRVLCALNHSLQDALNYGLFQPPSRGRAGKFLDEERLLQDYPPNLDTPLPYLEFRYKRRVYAQNLIDDKPFAKLHTKANLKKFMDYVQLHSTDKVARLLDKGLDPNFHDPDSGECPLSLAAQLDNATDLLKVLRNGGAHLDFRTRDGLTAVHCATRQRNAGALTTLLDLGASPDYKDSRGLTPLYHSALGGGDALCCELLLHDHAQLGTTDENGWQEIHQACRFGHVQHLEHLLFYGANMGAQNASGNTALHICALYNQESCARVLLFRGANKDVRNYNSQTAFQVAIIAGNFELAEVIKTHK [chain 1 Q106P]
